Experimental findings from patent US20170190753A1 (LABORATOIRE FRANCAIS DU FRACTIONNEMENT ET DES …, published 2017) are described below.

B1: pCEP4-1NT7-15CT20 (other)
chain: EDCNELPPRRNTEILTGSWSDQTYPEGTQAIYKCRPGYRSLGNVIMVCRKGEWVALNPLRKCQKRPCGHPGDTPFGTFTLTGGNVFEYGVKAVYTCNEGYQLLGEINYRECDTDGWTNDIPICEVVKCLPVTAPENGKIVSSAMEPDREYHFGQAVRFVCNSGYKIEGDEEMHCSDDGFWSKEKPKCVEISCKSPDVINGSPISQKIIYKENERFQYKCNMGYEYSERGDAVCTESGWRPLPSCEEKSCDNPYIPNGDYSPLRIKHRTGDEITYQCRNGFYPATRGNTAKCTSTGWIPAPRCTLKPCDYPDIKHGGLYHENMRRPYFPVAVGKYYSYYCDEHFETPSGSYWDHIHCTQDGWSPAVPCLRKCYFPYLENGYNQNYGRKFVQGKSIDVACHPGYALPKAQTTVTCMENGWSPTPRCIRVKTGASGCSQPPQIEHGTINSSRSSQESYAHGTKLSYTCEGGFRISEENETTCYMGKWSSPPQCEGLPCKSPPEISHGVVAHMSDSYQYGEEVTYKCFEGFGIDGPAIAKCLGEKWSHPPSCIKTDCLSLPSFENAIPMGEKKDVYKAGEQVTYTCATYYKMDGASNVTCINSRWTGRPTCRDTSCVNPPTVQNAYIVSRQMSKYPSGERVRYQCRSPYEMFGDEEVMCLNGNWTEPPQCKDSTGKCGPPPPIDNGDITSFPLSVYAPASSVEYQCQNLYQLEGNKRITCRNGQWSEPPKCLHPCVISREIMENYNIALRWTAKQKLYSRTGESVEFVCKRGYRLSSRSHTLRTTCWDGKLEYPTCAKRGGSGHHHHHH
B2: pCEP4-1NT9-13CT20 (other)
chain: EDCNELPPRRNTEILTGSWSDQTYPEGTQAIYKCRPGYRSLGNVIMVCRKGEWVALNPLRKCQKRPCGHPGDTPFGTFTLTGGNVFEYGVKAVYTCNEGYQLLGEINYRECDTDGWTNDIPICEVVKCLPVTAPENGKIVSSAMEPDREYHFGQAVRFVCNSGYKIEGDEEMHCSDDGFWSKEKPKCVEISCKSPDVINGSPISQKIIYKENERFQYKCNMGYEYSERGDAVCTESGWRPLPSCEEKSCDNPYIPNGDYSPLRIKHRTGDEITYQCRNGFYPATRGNTAKCTSTGWIPAPRCTLKPCDYPDIKHGGLYHENMRRPYFPVAVGKYYSYYCDEHFETPSGSYWDHIHCTQDGWSPAVPCLRKCYFPYLENGYNQNYGRKFVQGKSIDVACHPGYALPKAQTTVTCMENGWSPTPRCIRVKTCSKSSIDIENGFISESQYTYALKEKAKYQCKLGYVTADGETSGSITCGKDGWSAQPTCIKSCDIPVFMNARTKNDFTWFKLNDTLDYECHDGYESNTGSTTGSIVCGYNGWSDLPICYEREGASGCKSSNLIILEEHLKNKKEFDHNSNIRYRCRGKEGWIHTVCINGRWDPEVNCSMAQIQLCPPPPQIPNSHNMTTTLNYRDGEKVSVLCQENYLIQEGEEITCKDGRWQSIPLCVEKIPCSQPPQIEHGTINSSRSSQESYAHGTKLSYTCEGGFRISEENETTCYMGKWSSPPQCEGLPCKSPPEISHGVVAHMSDSYQYGEEVTYKCFEGFGIDGPAIAKCLGEKWSHPPSCIKTDCLSLPSFENAIPMGEKKDVYKAGEQVTYTCATYYKMDGASNVTCINSRWTGRPTCRDTSCVNPPTVQNAYIVSRQMSKYPSGERVRYQCRSPYEMFGDEEVMCLNGNWTEPPQCKDSTGKCGPPPPIDNGDITSFPLSVYAPASSVEYQCQNLYQLEGNKRITCRNGQWSEPPKCLHPCVISREIMENYNIALRWTAKQKLYSRTGESVEFVCKRGYRLSSRSHTLRTTCWDGKLEYPTCAKRGGSGHHHHHH
B3: pCEP4-1NT7-9CT20 (other)
chain: EDCNELPPRRNTEILTGSWSDQTYPEGTQAIYKCRPGYRSLGNVIMVCRKGEWVALNPLRKCQKRPCGHPGDTPFGTFTLTGGNVFEYGVKAVYTCNEGYQLLGEINYRECDTDGWTNDIPICEVVKCLPVTAPENGKIVSSAMEPDREYHFGQAVRFVCNSGYKIEGDEEMHCSDDGFWSKEKPKCVEISCKSPDVINGSPISQKIIYKENERFQYKCNMGYEYSERGDAVCTESGWRPLPSCEEKSCDNPYIPNGDYSPLRIKHRTGDEITYQCRNGFYPATRGNTAKCTSTGWIPAPRCTLKPCDYPDIKHGGLYHENMRRPYFPVAVGKYYSYYCDEHFETPSGSYWDHIHCTQDGWSPAVPCLRKCYFPYLENGYNQNYGRKFVQGKSIDVACHPGYALPKAQTTVTCMENGWSPTPRCIRVKTGASGCDIPVFMNARTKNDFTWFKLNDTLDYECHDGYESNTGSTTGSIVCGYNGWSDLPICYERECELPKIDVHLVPDRKKDQYKVGEVLKFSCKPGFTIVGPNSVQCYHFGLSPDLPICKEQVQSCGPPPELLNGNVKEKTKEEYGHSEVVEYYCNPRFLMKGPNKIQCVDGEWTTLPVCIVEESTCGDIPELEHGWAQLSSPPYYYGDSVEFNCSESFTMIGHRSITCIHGVWTQLPQCVAIDKLKKCKSSNLIILEEHLKNKKEFDHNSNIRYRCRGKEGWIHTVCINGRWDPEVNCSMAQIQLCPPPPQIPNSHNMTTTLNYRDGEKVSVLCQENYLIQEGEEITCKDGRWQSIPLCVEKIPCSQPPQIEHGTINSSRSSQESYAHGTKLSYTCEGGFRISEENETTCYMGKWSSPPQCEGLPCKSPPEISHGVVAHMSDSYQYGEEVTYKCFEGFGIDGPAIAKCLGEKWSHPPSCIKTDCLSLPSFENAIPMGEKKDVYKAGEQVTYTCATYYKMDGASNVTCINSRWTGRPTCRDTSCVNPPTVQNAYIVSRQMSKYPSGERVRYQCRSPYEMFGDEEVMCLNGNWTEPPQCKDSTGKCGPPPPIDNGDITSFPLSVYAPASSVEYQCQNLYQLEGNKRITCRNGQWSEPPKCLHPCVISREIMENYNIALRWTAKQKLYSRTGESVEFVCKRGYRLSSRSHTLRTTCWDGKLEYPTCAKRGGSGHHHHHH
B4: pCEP4-1NT4-15CT20 (other)
chain: EDCNELPPRRNTEILTGSWSDQTYPEGTQAIYKCRPGYRSLGNVIMVCRKGEWVALNPLRKCQKRPCGHPGDTPFGTFTLTGGNVFEYGVKAVYTCNEGYQLLGEINYRECDTDGWTNDIPICEVVKCLPVTAPENGKIVSSAMEPDREYHFGQAVRFVCNSGYKIEGDEEMHCSDDGFWSKEKPKCVEISCKSPDVINGSPISQKIIYKENERFQYKCNMGYEYSERGDAVCTESGWRPLPSCEEKSGASGCSQPPQIEHGTINSSRSSQESYAHGTKLSYTCEGGFRISEENETTCYMGKWSSPPQCEGLPCKSPPEISHGVVAHMSDSYQYGEEVTYKCFEGFGIDGPAIAKCLGEKWSHPPSCIKTDCLSLPSFENAIPMGEKKDVYKAGEQVTYTCATYYKMDGASNVTCINSRWTGRPTCRDTSCVNPPTVQNAYIVSRQMSKYPSGERVRYQCRSPYEMFGDEEVMCLNGNWTEPPQCKDSTGKCGPPPPIDNGDITSFPLSVYAPASSVEYQCQNLYQLEGNKRITCRNGQWSEPPKCLHPCVISREIMENYNIALRWTAKQKLYSRTGESVEFVCKRGYRLSSRSHTLRTTCWDGKLEYPTCAKRGGSGHHHHHH
For C3 convertase activity % of the control in this document: test concentration or dose not given here.

The test deals with C3 convertase complex (UniProt P01024 23-1663; P00751 260-764). The test is described as follows: cell-based or functional assay.
Chain of C3 convertase complex (P01024 23-1663, chain 1 of 2): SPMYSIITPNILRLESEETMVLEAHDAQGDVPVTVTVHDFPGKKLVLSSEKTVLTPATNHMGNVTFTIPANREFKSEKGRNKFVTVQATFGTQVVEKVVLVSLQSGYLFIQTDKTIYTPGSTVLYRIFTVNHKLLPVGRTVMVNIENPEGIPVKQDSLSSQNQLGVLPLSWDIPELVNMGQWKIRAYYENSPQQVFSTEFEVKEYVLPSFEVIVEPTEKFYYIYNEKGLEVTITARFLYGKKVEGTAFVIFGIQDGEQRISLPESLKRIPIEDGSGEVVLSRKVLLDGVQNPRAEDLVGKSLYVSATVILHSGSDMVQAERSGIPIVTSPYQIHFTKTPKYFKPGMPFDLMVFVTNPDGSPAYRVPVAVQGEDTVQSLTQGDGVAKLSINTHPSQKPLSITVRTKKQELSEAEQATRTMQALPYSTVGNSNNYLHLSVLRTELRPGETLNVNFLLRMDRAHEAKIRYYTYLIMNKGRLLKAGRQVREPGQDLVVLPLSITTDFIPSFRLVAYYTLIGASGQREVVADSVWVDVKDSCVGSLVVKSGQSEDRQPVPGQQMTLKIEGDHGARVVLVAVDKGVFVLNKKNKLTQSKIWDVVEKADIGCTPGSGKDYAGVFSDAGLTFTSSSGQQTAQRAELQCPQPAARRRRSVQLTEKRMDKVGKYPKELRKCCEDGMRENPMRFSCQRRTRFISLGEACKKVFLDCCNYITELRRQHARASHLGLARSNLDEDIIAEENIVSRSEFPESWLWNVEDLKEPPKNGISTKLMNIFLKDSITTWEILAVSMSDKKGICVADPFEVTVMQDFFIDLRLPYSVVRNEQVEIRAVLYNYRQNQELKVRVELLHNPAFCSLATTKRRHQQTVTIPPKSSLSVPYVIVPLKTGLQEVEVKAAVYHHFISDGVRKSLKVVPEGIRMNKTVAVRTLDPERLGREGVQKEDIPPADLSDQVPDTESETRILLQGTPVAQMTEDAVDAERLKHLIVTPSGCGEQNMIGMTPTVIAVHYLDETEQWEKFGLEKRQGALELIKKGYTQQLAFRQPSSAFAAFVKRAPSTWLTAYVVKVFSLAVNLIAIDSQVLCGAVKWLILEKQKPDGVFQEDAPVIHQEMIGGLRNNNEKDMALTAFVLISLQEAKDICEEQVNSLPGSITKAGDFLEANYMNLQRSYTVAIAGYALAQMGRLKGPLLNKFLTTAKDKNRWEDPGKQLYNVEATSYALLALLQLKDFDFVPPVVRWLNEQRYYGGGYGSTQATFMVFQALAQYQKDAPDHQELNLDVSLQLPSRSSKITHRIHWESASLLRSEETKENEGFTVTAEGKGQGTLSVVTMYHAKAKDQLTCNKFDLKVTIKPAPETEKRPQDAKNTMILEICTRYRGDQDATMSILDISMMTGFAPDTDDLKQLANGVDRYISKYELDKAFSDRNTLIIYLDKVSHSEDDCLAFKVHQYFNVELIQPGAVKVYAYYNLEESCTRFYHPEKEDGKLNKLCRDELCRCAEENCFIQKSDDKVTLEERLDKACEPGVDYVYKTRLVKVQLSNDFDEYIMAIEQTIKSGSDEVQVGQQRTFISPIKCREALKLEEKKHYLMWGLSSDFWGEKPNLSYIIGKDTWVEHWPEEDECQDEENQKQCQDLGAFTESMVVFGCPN
Chain of C3 convertase complex (P00751 260-764, chain 2 of 2): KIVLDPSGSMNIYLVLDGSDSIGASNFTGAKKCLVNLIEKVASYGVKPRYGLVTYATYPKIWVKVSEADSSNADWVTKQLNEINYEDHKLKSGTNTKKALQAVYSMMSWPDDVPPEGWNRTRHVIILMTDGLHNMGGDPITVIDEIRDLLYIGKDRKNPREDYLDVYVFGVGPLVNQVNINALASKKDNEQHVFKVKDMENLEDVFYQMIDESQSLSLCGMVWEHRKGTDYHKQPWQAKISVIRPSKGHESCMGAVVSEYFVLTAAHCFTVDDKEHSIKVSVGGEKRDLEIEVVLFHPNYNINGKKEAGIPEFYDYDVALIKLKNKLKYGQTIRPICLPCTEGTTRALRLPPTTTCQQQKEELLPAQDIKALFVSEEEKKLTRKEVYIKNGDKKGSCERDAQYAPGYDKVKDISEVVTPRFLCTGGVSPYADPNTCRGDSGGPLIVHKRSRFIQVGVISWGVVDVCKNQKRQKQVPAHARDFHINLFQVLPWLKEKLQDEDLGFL
Take B1: the “C3 convertase activity % of the control” value was 56 % of the control and the “C3 convertase activity IC50” value was 0.639 µg/mL.

On to B2, for which the “C3 convertase activity % of the control” value is 56 % of the control and the “C3 convertase activity IC50” value was found to be 0.166 µg/mL.

As to B3, the “C3 convertase activity % of the control” value is 156 % of the control and the “C3 convertase activity IC50” value was 0.252 µg/mL.

For the molecule B4, the “C3 convertase activity % of the control” value is 58 % of the control and the “C3 convertase activity IC50” value was determined as 0.206 µg/mL.
